Blank lines part the entries; values can stand above or below the molecule they belong to.
Experiments:
[1] = molecular target: T1, AtGRXS15 (reduced monomer) (Arabidopsis thaliana, UniProt Q8LBK6); experiment: mBBr fluorescence titration of remaining free thiol; assay type: binding; settings: oxidant concentration for half-maximal protein thiol oxidation, no equilibrium or Michaelis constant; covalent (Cys91); 5 µM protein, 1 h, RT, 30 mM Tris-HCl pH 8.0, 200 mM NaCl
T1 construct: gene GRXS15; about 17 kDa on mPEG24 gel
T1 sequence (Q8LBK6 38-169): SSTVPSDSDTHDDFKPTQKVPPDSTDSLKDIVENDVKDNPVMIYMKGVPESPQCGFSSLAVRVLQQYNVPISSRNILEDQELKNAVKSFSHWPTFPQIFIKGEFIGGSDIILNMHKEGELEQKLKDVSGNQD

[2] = molecular target: Cys91 (UniProt position 91, PESPQCGFSSL); experiment: chemical modification; settings: room temperature; not stated (100 mM buffers, no added salt stated); 100 mM citrate buffers from pH 2.0 to 6.0; 100 mM phosphate buffers from pH 6.5 to 8.0; reduced (TCEP pre-reduced, desalted) apo monomer, 10 µM
[3] = tested on: Cys; settings: cited from earlier work
[4] = molecular target: the molecule itself; experiment: non-reducing SDS-PAGE after oxidation and thiol alkylation (mPEG24); pre-reduced AtGRXS15 (13 µM) incubated with 5- or 10-fold molar excess of H2O2, DTTox, GSSG or GSNO for 2 h at RT; TCA precipitation, mPEG24 alkylation, non-reducing SDS-PAGE; dimer mainly with H2O2, to some extent with GSSG and GSNO, no oxidation with DTTox

S0.5 [1]: 21 ± 1 µM
Molecule: N[C@@H](CCC(=O)N[C@@H](CSN=O)C(=O)NCC(=O)O)C(=O)O [GSNO]

Molecule: Glutaredoxin S15, mitochondrial (AtGRXS15) (Arabidopsis thaliana)
pKa [2]: 4.0 ± 0.1

Molecule: Glutaredoxin S16 (AtGRXS16) (Arabidopsis thaliana)
pKa [3]: ~3.9

Molecule: Monothiol glutaredoxin 5, mitochondrial (Grx5) (Saccharomyces cerevisiae)
pKa [3]: ~5.0

B1: Arabidopsis thaliana mitochondrial glutaredoxin S15 (natural protein, UniProt Q8LBK6 38-169, looked up)
chain: SSTVPSDSDTHDDFKPTQKVPPDSTDSLKDIVENDVKDNPVMIYMKGVPESPQCGFSSLAVRVLQQYNVPISSRNILEDQELKNAVKSFSHWPTFPQIFIKGEFIGGSDIILNMHKEGELEQKLKDVSGNQD
notes: single cysteine Cys91 in the CGFS motif; no tag is named; The fractions kept after the last SEC step were the monomeric ones; The dimer seen after oxidation is covalent (intermolecular disulfide); also called AtGRXS15; GRXS15; source: E. coli C41(DE3) with pSBET helper plasmid, purified (ammonium sulfate, SEC, Q-sepharose, Superdex S75); pre-reduced with TCEP
stoichiometry N [4]: 2

Reference: publication PMC9854632, “Relationships between the Reversible Oxidation of the Single Cysteine Residue and the Physiological Function of the Mitochondrial Glutaredoxin S15 from Arabidopsis thaliana” (Antioxidants, 2022)
